From PMC10813002, “Neurofilament Light Protein Rod Domain Exhibits Structural Heterogeneity” (Biomolecules, 2024)

How the values were obtained:
[1] = molecular target: the molecule itself; experiment: SEC + cross-linking; 250 uL of 2 mg/mL protein on Superose 6 Increase 10/300 GL in 5 mM HEPES pH 8.0, 0.5 mM EGTA, 2 mM DTT; samples from each peak cross-linked with 0.024% glutaraldehyde at 30 °C for 60 min, SDS-PAGE in 12.5% gel
[2] = molecular target: the molecule itself; experiment: cross-linking; NFL1B at 1 and 2 mg/mL, 0.008% or 0.024% glutaraldehyde, SDS-PAGE

Row | Protein | stoichiometry N [1] | stoichiometry N [2]
1 | NFL_(1B+2) (neurofilament light chain protein, coils 1B and 2, Ser133-Glu396) (domain or fragment, human, UniProt P07196 133-396, looked up, neurofilament light chain protein (NFL), human, product of the NEFL gene, UniProt P07196, coils 1B and 2, residues Ser133-Glu396; The monomer mass used for DSC is 30.4 kDa; source: E. coli C41, inclusion bodies solubilised in 8 M urea, purified (HisTrap HP), renatured by dialysis) SRFRALYEQEIRDLRLAAEDATNEKQALQGEREGLEETLRNLQARYEEEVLSREDAEGRLMEARKGADEAALARAELEKRIDSLMDEISFLKKVHEEEIAELQAQIQYAQISVEMDVTKPDLSAALKDIRAQYEKLAAKNMQNAEEWFKSRFTVLTESAAKNTDAVRAAKDEVSESRRLLKAKTLEIEACRGMNEALEKQLQELEDKQNADISAMQDTINKLENELRTTKSEMARYLKEYQDLLNVKMALDIEIAAYRKLLEGE | 4 | 
2 | NFL_(1A+1B) (neurofilament light chain protein, coils 1A and 1B, Ser80-Ile243) (domain or fragment, human, UniProt P07196 80-243, looked up, neurofilament light chain protein (NFL), human, product of the NEFL gene, UniProt P07196, coils 1A and 1B, residues Ser80-Ile243; The monomer mass used for DSC is 19.2 kDa; also called coil 1; source: E. coli C41, purified from the fraction of soluble proteins (HisTrap HP, imidazole gradient)) SNDLKSIRTQEKAQLQDLNDRFASFIERVHELEQQNKVLEAELLVLRQKHSEPSRFRALYEQEIRDLRLAAEDATNEKQALQGEREGLEETLRNLQARYEEEVLSREDAEGRLMEARKGADEAALARAELEKRIDSLMDEISFLKKVHEEEIAELQAQIQYAQI | 2 | 
3 | NFL1B (neurofilament light chain protein, coil 1B, Ser133-Ile243) (domain or fragment, human, UniProt P07196 133-243, looked up, neurofilament light chain protein (NFL), human, product of the NEFL gene, UniProt P07196, coil 1B, residues Ser133-Ile243; Dimer at 1-2 mg/mL; larger oligomers also at 5 mg/mL; also called NFL coil 1B domain; source: E. coli C41, purified from the fraction of soluble proteins (HisTrap HP, imidazole gradient)) SRFRALYEQEIRDLRLAAEDATNEKQALQGEREGLEETLRNLQARYEEEVLSREDAEGRLMEARKGADEAALARAELEKRIDSLMDEISFLKKVHEEEIAELQAQIQYAQI |  | 2
4 | NFL2 (neurofilament light chain protein, coil 2, Val249-Glu396) (domain or fragment, human, UniProt P07196 249-396, looked up, neurofilament light chain protein (NFL), human, product of the NEFL gene, UniProt P07196, coil 2, residues Val249-Glu396; The monomer mass used for DSC is 16.9 kDa; also called NFL coil 2; source: E. coli C41, inclusion bodies solubilised in 8 M urea, purified (HisTrap HP), renatured by dialysis) VTKPDLSAALKDIRAQYEKLAAKNMQNAEEWFKSRFTVLTESAAKNTDAVRAAKDEVSESRRLLKAKTLEIEACRGMNEALEKQLQELEDKQNADISAMQDTINKLENELRTTKSEMARYLKEYQDLLNVKMALDIEIAAYRKLLEGE | 2 | 
5 | NFLROD (neurofilament light chain protein rod domain, coils 1A, 1B and 2, Ser80-Glu396) (domain or fragment, human, UniProt P07196 80-396, looked up, neurofilament light chain protein (NFL), human, product of the NEFL gene, UniProt P07196, rod domain (coils 1A, 1B and 2), residues Ser80-Glu396; The monomer mass used for DSC is 36.6 kDa; also called NFL rod domain; full rod domain (1A+1B+2); source: E. coli C41, inclusion bodies solubilised in 8 M urea, purified (HisTrap HP), renatured by dialysis) SNDLKSIRTQEKAQLQDLNDRFASFIERVHELEQQNKVLEAELLVLRQKHSEPSRFRALYEQEIRDLRLAAEDATNEKQALQGEREGLEETLRNLQARYEEEVLSREDAEGRLMEARKGADEAALARAELEKRIDSLMDEISFLKKVHEEEIAELQAQIQYAQISVEMDVTKPDLSAALKDIRAQYEKLAAKNMQNAEEWFKSRFTVLTESAAKNTDAVRAAKDEVSESRRLLKAKTLEIEACRGMNEALEKQLQELEDKQNADISAMQDTINKLENELRTTKSEMARYLKEYQDLLNVKMALDIEIAAYRKLLEGE | 4 | 
